This is an account of results in US20070014736A1, “Methods of delivering corticotroph-derived glycoprotein hormone” (priority 2005, published 2007).

In test [1] the test system is lipolysis in mice. Nature of the test: Stimulation of lipolysis in vivo, serum glycerol and FFA. Conditions: fasted mice, IP; CGH 300 μg/kg, CL 1 mg/kg. On the procedure: CGH, the β3-adrenoreceptor agonist CL 316,243 (CL), and saline vehicle were examined for stimulation of lipolysis in mice following an overnight fast. […] Lipolysis was assessed as the percent change in serum glycerol or FFA over the 2 hour period. The serum glycerol and FFA for the vehicle groups decreased by 7%±9% and 24%±15%, respectively. The serum glycerol for the CGH group increased by 57%±20%; p=0.0254, and the FFA levels increased 25%±5%; p=0.0188.
C57 BL/6 male mice, age 19 weeks, were grouped to normalize weight (n=4 for each treatment; average group weight=37.8 g±0.4 g). Mice were housed individually for 18 hours prior to treatment, at which time food was withdrawn, with free access to water given. At approximately 8 a.m., the subjects were anesthetized with halothane and blood samples taken by retro-orbital eye bleed. The blood was allowed to clot, and the serum was separated by centrifugation and frozen for later analysis. Test substances were administered by IP injection in a volume of 0.1 ml, and the animals replaced in their cages for 2 hours with free access to water. At 2 hours, the mice were sacrificed and blood drawn by cardiac puncture.
For measuring free fatty acids in serum, the method previously described for measuring free fatty acids in conditioned media was followed, with the following modifications. Wako reagents A and B were reconstituted to 2× the recommended concentration. 75 μl of Wako reagent A were added to 5 μl of oleic acid standard plus 5 μl of water. 75 μl of Wako reagent A were added to 5 μl of serum plus 5 μl of methanol (to mirror the oleic acid standard conditions). The 96-well plates were incubated at 37° C. for 10 minutes. 150 μl of Wako reagent B were added to each well. The 96-well plates were incubated at 37° C. for 10 minutes. The 96-well plates were allowed to sit at room temperature for 5 minutes. The 96-well plates were centrifuged in a Beckman Coulter Allegra 6R centrifuge at 3250×g for 5 minutes to remove air bubbles. The absorbance at 530 nm was measured on the Wallac Victor2 Multilabel counter.
For measuring glycerol in serum, the method previously described for measuring glycerol in conditioned media was followed, with the modifications described below.
Sigma reagent A was reconstituted to 0.5× the recommended concentration. 200 μl of Sigma reagent A were added to 10 μl of glycerol standard. 200 μl of Sigma reagent A were added to 5 μl of serum plus 5 μI of water. The 96-well plates were incubated for 15 minutes at room temperature. The 96-well plates were centrifuged in a Beckman Coulter Allegra 6R centrifuge at 3250×g for 5 minutes to remove air bubbles. The absorbance at 530 nm was measured on the Wallac Victor2 Multilabel counter.

In test [2] the test system is TSHR. Kind of test: Binding of 125I-CGH and 125I-TSH to BHK cells expressing the TSHR. The following applies: increasing amounts of unlabeled protein. Also on record: species or system murine or human. On the procedure:
BHK cells expressing murine or human TSHRs were cultured in Dulbecco's Modified Eagle's Medium [DMEM (high glucose)] containing 5% fetal bovine serum, 1% Glutamax, 1% sodium pyruvate, 250 nM methotrexate, and Geneticin ( 1/100). […] Plates of cells were placed on ice and washed twice with 1.0-2.0 ml of ice-cold PBS. […] Specific binding was determined in the presence (nonspecific binding) and absence (total binding) of unlabeled rhCGH (25.0 μg/ml) or TSH (10 μg/ml). Binding reactions were terminated by removing the binding medium and the cell monolayers were washed three times with 1.0-2.0 ml of ice-cold PBS containing 1.0 mg/ml BSA and twice with 1.0-2.0 ml of ice cold albumin-free PBS. Cells were solubilized in 1.0 ml of 1.0N NaOH for 10 min at room temperature and cell-associated radioactivity was determined in a gamma counter. The measured radioactivity was normalized to cell number that was determined on plates of cells cultured in parallel. Binding data were analyzed by non-linear regression using Prizm 3.0 (GraphPad Software, San Diego, Calif.).

Test [3] relates to NCI-H295R. Kind of test: CRE-luciferase reporter assay in NCI-H295R adrenal cortex cells. The format is cell-based, human. The source says:
Summary: A human adrenal cortex cell line, NCI-H295R, was used to study signal transduction of CGH. NCI-H295R was transduced with recombinant adenovirus containing a reporter construct, a firefly luciferase gene under the control of cAMP response element (CRE) enhancer sequences. This assay system detects cAMP-mediated gene induction downstream of activation of Gs-coupled GPCR's (G-protein coupled receptors). […] Typically, CGH elicited a maximal response of 15-40-fold luciferase induction above control media.
NCI-H295R cells were obtained from the ATCC (CRL-2128, Manassas, Va.) and cultured in growth medium as follows: 1:1 mixture of Dulbecco's modified Eagle's medium and Ham's F12 medium with L-glutamine (D-MEM/F-12; GIBCO, cat.#11320-033) containing 25 mM HEPES buffer (GIBCO, Invitrogen, Carlsbad, Calif., cat.#15630-080), 1 mM sodium pyruvate (GIBCO, cat.#11360-070), 1% ITS+1 media supplement (Sigma St. Louis, Mo. cat#I2521) and 2.5% Nu-Se I (BD Biosciences, Lexington, Ky. cat.#355100). Cells were cultured at 37° C. in a 5% CO2 humidified incubator. […]
Promega's Luciferase Assay System (Promega, Madison, Wis., cat. #E1500) was used to process the treated cells. […] Luciferase activity was measured on a microplate luminometer (PerkinElmer Life Sciences, Inc., model LB 96V2R) following automated injection of luciferase assay substrate.
In general terms: Reporter assays use an easily measured gene product as a stand-in for the process of interest.

B1: CGH: heterodimeric protein hormone comprised of alpha subunit GPHA2 and beta subunit GPHB5, recombinantly produced in CHO cells (protein)
chain 1: QEAVIPGCHLHPFNVTVRSDRQGTCQGSHVAQACVGHCESSAFPSRYSVLVASGYRHNITSVSQCCTISGLKKVKVQLQCVGSRREELEIFTARACQCDMCRLSRY
chain 2: ASSGNLRTFVGCAVREFTFLAKKPGCRGLRITTDACWGRCETWEKPILEPPYIEAHHRVCTYNETKQVTVKLPNCAPGVDPFYTYPVAIRCDCGACSTATTECETI
Regarding B1, in test [1], the “percent change (increase) in serum FFA over 2 hours” value is reported as 25%±5% and the “percent change (increase) in serum glycerol over 2 hours” value is given as 57%±20%. In addition, in test [2], the “reduction of the amount of 125I-CGH bound by unlabeled competitor” value is listed as “reduced the amount of ^125I-CGH bound”. Moreover, the “maximal response, luciferase induction above control media” value in test [3] (CRE-luciferase, 4 h) is 15-40 fold. For the same molecule, the “induction of luciferase activity compared with 10 μM forskolin” value in test [3] (dose-dependent) is given as “equal to or higher than that induced by 10 μM forskolin”.
